Data from US20230220021A1 (UNIVERSITY OF COPENHAGEN, published 2023).
[ ]: non-standard residue; d: D form.

B1: cyclic nNOS β-hairpin peptide H106A (peptide)
peptide: cyclo(TALETTFTGDGTPKTIRVTQ[dP]GQ)
SMILES: CC[C@H](C)[C@@H]1NC(=O)[C@H]([C@@H](C)O)NC(=O)[C@H](CCCCN)NC(=O)[C@@H]2CCCN2C(=O)[C@H]([C@@H](C)O)NC(=O)CNC(=O)[C@H](CC(=O)O)NC(=O)CNC(=O)[C@H]([C@@H](C)O)NC(=O)[C@H](Cc2ccccc2)NC(=O)[C@H]([C@@H](C)O)NC(=O)[C@H]([C@@H](C)O)NC(=O)[C@H](CCC(=O)O)NC(=O)[C@H](CC(C)C)NC(=O)[C@H](C)NC(=O)[C@H]([C@@H](C)O)NC(=O)[C@H](CCC(N)=O)NC(=O)CNC(=O)[C@H]2CCCN2C(=O)[C@H](CCC(N)=O)NC(=O)[C@H]([C@@H](C)O)NC(=O)[C@H](C(C)C)NC(=O)[C@H](CCCNC(=N)N)NC1=O
B2: cyclic nNOS β-hairpin peptide R121A (peptide)
peptide: cyclo(THLETTFTGDGTPKTIAVTQ[dP]GQ)
SMILES: CC[C@H](C)[C@@H]1NC(=O)[C@H]([C@@H](C)O)NC(=O)[C@H](CCCCN)NC(=O)[C@@H]2CCCN2C(=O)[C@H]([C@@H](C)O)NC(=O)CNC(=O)[C@H](CC(=O)O)NC(=O)CNC(=O)[C@H]([C@@H](C)O)NC(=O)[C@H](Cc2ccccc2)NC(=O)[C@H]([C@@H](C)O)NC(=O)[C@H]([C@@H](C)O)NC(=O)[C@H](CCC(=O)O)NC(=O)[C@H](CC(C)C)NC(=O)[C@H](Cc2c[nH]cn2)NC(=O)[C@H]([C@@H](C)O)NC(=O)[C@H](CCC(N)=O)NC(=O)CNC(=O)[C@H]2CCCN2C(=O)[C@H](CCC(N)=O)NC(=O)[C@H]([C@@H](C)O)NC(=O)[C@H](C(C)C)NC(=O)[C@H](C)NC1=O
B3: cyclic nNOS β-hairpin peptide T116A (peptide)
peptide: cyclo(THLETTFTGDGAPKTIRVTQ[dP]GQ)
SMILES: CC[C@H](C)[C@@H]1NC(=O)[C@H]([C@@H](C)O)NC(=O)[C@H](CCCCN)NC(=O)[C@@H]2CCCN2C(=O)[C@H](C)NC(=O)CNC(=O)[C@H](CC(=O)O)NC(=O)CNC(=O)[C@H]([C@@H](C)O)NC(=O)[C@H](Cc2ccccc2)NC(=O)[C@H]([C@@H](C)O)NC(=O)[C@H]([C@@H](C)O)NC(=O)[C@H](CCC(=O)O)NC(=O)[C@H](CC(C)C)NC(=O)[C@H](Cc2c[nH]cn2)NC(=O)[C@H]([C@@H](C)O)NC(=O)[C@H](CCC(N)=O)NC(=O)CNC(=O)[C@H]2CCCN2C(=O)[C@H](CCC(N)=O)NC(=O)[C@H]([C@@H](C)O)NC(=O)[C@H](C(C)C)NC(=O)[C@H](CCCNC(=N)N)NC1=O
B4: cyclic nNOS β-hairpin peptide K118A (peptide)
peptide: cyclo(THLETTFTGDGTPATIRVTQ[dP]GQ)
SMILES: CC[C@H](C)[C@@H]1NC(=O)[C@H]([C@@H](C)O)NC(=O)[C@H](C)NC(=O)[C@@H]2CCCN2C(=O)[C@H]([C@@H](C)O)NC(=O)CNC(=O)[C@H](CC(=O)O)NC(=O)CNC(=O)[C@H]([C@@H](C)O)NC(=O)[C@H](Cc2ccccc2)NC(=O)[C@H]([C@@H](C)O)NC(=O)[C@H]([C@@H](C)O)NC(=O)[C@H](CCC(=O)O)NC(=O)[C@H](CC(C)C)NC(=O)[C@H](Cc2c[nH]cn2)NC(=O)[C@H]([C@@H](C)O)NC(=O)[C@H](CCC(N)=O)NC(=O)CNC(=O)[C@H]2CCCN2C(=O)[C@H](CCC(N)=O)NC(=O)[C@H]([C@@H](C)O)NC(=O)[C@H](C(C)C)NC(=O)[C@H](CCCNC(=N)N)NC1=O
B5: cyclic nNOS β-hairpin peptide Q124A (peptide)
peptide: cyclo(THLETTFTGDGTPKTIRVTA[dP]GQ)
SMILES: CC[C@H](C)[C@@H]1NC(=O)[C@H]([C@@H](C)O)NC(=O)[C@H](CCCCN)NC(=O)[C@@H]2CCCN2C(=O)[C@H]([C@@H](C)O)NC(=O)CNC(=O)[C@H](CC(=O)O)NC(=O)CNC(=O)[C@H]([C@@H](C)O)NC(=O)[C@H](Cc2ccccc2)NC(=O)[C@H]([C@@H](C)O)NC(=O)[C@H]([C@@H](C)O)NC(=O)[C@H](CCC(=O)O)NC(=O)[C@H](CC(C)C)NC(=O)[C@H](Cc2c[nH]cn2)NC(=O)[C@H]([C@@H](C)O)NC(=O)[C@H](CCC(N)=O)NC(=O)CNC(=O)[C@H]2CCCN2C(=O)[C@H](C)NC(=O)[C@H]([C@@H](C)O)NC(=O)[C@H](C(C)C)NC(=O)[C@H](CCCNC(=N)N)NC1=O
B6: cyclic nNOS β-hairpin peptide I120A (peptide)
peptide: cyclo(THLETTFTGDGTPKTARVTQ[dP]GQ)
SMILES: CC(C)C[C@@H]1NC(=O)[C@H](Cc2c[nH]cn2)NC(=O)[C@H]([C@@H](C)O)NC(=O)[C@H](CCC(N)=O)NC(=O)CNC(=O)[C@H]2CCCN2C(=O)[C@H](CCC(N)=O)NC(=O)[C@H]([C@@H](C)O)NC(=O)[C@H](C(C)C)NC(=O)[C@H](CCCNC(=N)N)NC(=O)[C@H](C)NC(=O)[C@H]([C@@H](C)O)NC(=O)[C@H](CCCCN)NC(=O)[C@@H]2CCCN2C(=O)[C@H]([C@@H](C)O)NC(=O)CNC(=O)[C@H](CC(=O)O)NC(=O)CNC(=O)[C@H]([C@@H](C)O)NC(=O)[C@H](Cc2ccccc2)NC(=O)[C@H]([C@@H](C)O)NC(=O)[C@H]([C@@H](C)O)NC(=O)[C@H](CCC(=O)O)NC1=O
B7: cyclic nNOS β-hairpin peptide P117A (peptide)
peptide: cyclo(THLETTFTGDGTAKTIRVTQ[dP]GQ)
SMILES: CC[C@H](C)[C@@H]1NC(=O)[C@H]([C@@H](C)O)NC(=O)[C@H](CCCCN)NC(=O)[C@H](C)NC(=O)[C@H]([C@@H](C)O)NC(=O)CNC(=O)[C@H](CC(=O)O)NC(=O)CNC(=O)[C@H]([C@@H](C)O)NC(=O)[C@H](Cc2ccccc2)NC(=O)[C@H]([C@@H](C)O)NC(=O)[C@H]([C@@H](C)O)NC(=O)[C@H](CCC(=O)O)NC(=O)[C@H](CC(C)C)NC(=O)[C@H](Cc2c[nH]cn2)NC(=O)[C@H]([C@@H](C)O)NC(=O)[C@H](CCC(N)=O)NC(=O)CNC(=O)[C@H]2CCCN2C(=O)[C@H](CCC(N)=O)NC(=O)[C@H]([C@@H](C)O)NC(=O)[C@H](C(C)C)NC(=O)[C@H](CCCNC(=N)N)NC1=O
B8: cyclic nNOS β-hairpin peptide T110A (peptide)
peptide: cyclo(THLETAFTGDGTPKTIRVTQ[dP]GQ)
SMILES: CC[C@H](C)[C@@H]1NC(=O)[C@H]([C@@H](C)O)NC(=O)[C@H](CCCCN)NC(=O)[C@@H]2CCCN2C(=O)[C@H]([C@@H](C)O)NC(=O)CNC(=O)[C@H](CC(=O)O)NC(=O)CNC(=O)[C@H]([C@@H](C)O)NC(=O)[C@H](Cc2ccccc2)NC(=O)[C@H](C)NC(=O)[C@H]([C@@H](C)O)NC(=O)[C@H](CCC(=O)O)NC(=O)[C@H](CC(C)C)NC(=O)[C@H](Cc2c[nH]cn2)NC(=O)[C@H]([C@@H](C)O)NC(=O)[C@H](CCC(N)=O)NC(=O)CNC(=O)[C@H]2CCCN2C(=O)[C@H](CCC(N)=O)NC(=O)[C@H]([C@@H](C)O)NC(=O)[C@H](C(C)C)NC(=O)[C@H](CCCNC(=N)N)NC1=O
B9: cyclic nNOS β-hairpin peptide T105A (peptide)
peptide: cyclo(AHLETTFTGDGTPKTIRVTQ[dP]GQ)
SMILES: CC[C@H](C)[C@@H]1NC(=O)[C@H]([C@@H](C)O)NC(=O)[C@H](CCCCN)NC(=O)[C@@H]2CCCN2C(=O)[C@H]([C@@H](C)O)NC(=O)CNC(=O)[C@H](CC(=O)O)NC(=O)CNC(=O)[C@H]([C@@H](C)O)NC(=O)[C@H](Cc2ccccc2)NC(=O)[C@H]([C@@H](C)O)NC(=O)[C@H]([C@@H](C)O)NC(=O)[C@H](CCC(=O)O)NC(=O)[C@H](CC(C)C)NC(=O)[C@H](Cc2c[nH]cn2)NC(=O)[C@H](C)NC(=O)[C@H](CCC(N)=O)NC(=O)CNC(=O)[C@H]2CCCN2C(=O)[C@H](CCC(N)=O)NC(=O)[C@H]([C@@H](C)O)NC(=O)[C@H](C(C)C)NC(=O)[C@H](CCCNC(=N)N)NC1=O
B10: cyclic nNOS β-hairpin peptide L107A (peptide)
peptide: cyclo(THAETTFTGDGTPKTIRVTQ[dP]GQ)
SMILES: CC[C@H](C)[C@@H]1NC(=O)[C@H]([C@@H](C)O)NC(=O)[C@H](CCCCN)NC(=O)[C@@H]2CCCN2C(=O)[C@H]([C@@H](C)O)NC(=O)CNC(=O)[C@H](CC(=O)O)NC(=O)CNC(=O)[C@H]([C@@H](C)O)NC(=O)[C@H](Cc2ccccc2)NC(=O)[C@H]([C@@H](C)O)NC(=O)[C@H]([C@@H](C)O)NC(=O)[C@H](CCC(=O)O)NC(=O)[C@H](C)NC(=O)[C@H](Cc2c[nH]cn2)NC(=O)[C@H]([C@@H](C)O)NC(=O)[C@H](CCC(N)=O)NC(=O)CNC(=O)[C@H]2CCCN2C(=O)[C@H](CCC(N)=O)NC(=O)[C@H]([C@@H](C)O)NC(=O)[C@H](C(C)C)NC(=O)[C@H](CCCNC(=N)N)NC1=O
B11: cyclic nNOS β-hairpin peptide T112A (peptide)
peptide: cyclo(THLETTFAGDGTPKTIRVTQ[dP]GQ)
SMILES: CC[C@H](C)[C@@H]1NC(=O)[C@H]([C@@H](C)O)NC(=O)[C@H](CCCCN)NC(=O)[C@@H]2CCCN2C(=O)[C@H]([C@@H](C)O)NC(=O)CNC(=O)[C@H](CC(=O)O)NC(=O)CNC(=O)[C@H](C)NC(=O)[C@H](Cc2ccccc2)NC(=O)[C@H]([C@@H](C)O)NC(=O)[C@H]([C@@H](C)O)NC(=O)[C@H](CCC(=O)O)NC(=O)[C@H](CC(C)C)NC(=O)[C@H](Cc2c[nH]cn2)NC(=O)[C@H]([C@@H](C)O)NC(=O)[C@H](CCC(N)=O)NC(=O)CNC(=O)[C@H]2CCCN2C(=O)[C@H](CCC(N)=O)NC(=O)[C@H]([C@@H](C)O)NC(=O)[C@H](C(C)C)NC(=O)[C@H](CCCNC(=N)N)NC1=O

target: T1, (7× His)-PSD-95-PDZ2 wild type (UniProt P78352 160-246); experiment: FP competition
T1 construct: domain: PDZ2; recombinant from E. coli; also called PSD-95-PDZ2 WT; not shown: 7x His tag
T1 sequence (P78352 160-246): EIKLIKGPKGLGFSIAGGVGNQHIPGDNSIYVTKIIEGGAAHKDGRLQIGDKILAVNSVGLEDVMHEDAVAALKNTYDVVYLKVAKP

Ki [nM] | Relative Ki (Ki mut/Ki WT) | Binder
2060 | 1.37 | B1
2470 | 1.65 | B2
1240 | 0.83 | B3
1430 | 0.95 | B4
1510 | 1.01 | B5
1760 | 1.17 | B6
1610 | 1.07 | B7
3930 | 2.62 | B8
1500 | 1 | B9
3540 | 2.36 | B10
1770 | 1.18 | B11
